According to paper PMC7083938, “NELL2-Robo3 complex structure reveals mechanisms of receptor activation for axon guidance” (Nature Communications, 2020):

Target: the molecule itself
Assay: SEC-MALS; Superose 6 Increase 10/300 in HBS (10 mM HEPES pH 7.2, 150 mM NaCl), Wyatt HELEOS II

B1: mNELL1 (full length) (ligand, mouse, UniProt Q2VWQ2 25-809, looked up)
chain: DPDLQMDIITELDLVNTTLGVTQVAGLHNASKAFLFQDVQREIHSAPHVSEKLIQLFRNKSEFTFLATVQQKPSTSGVILSIRELEHSYFELESSGPREEIRYHYIHGGKPRTEALPYRMADGQWHKVALSVSASHLLLHVDCNRIYERVIDPPETNLPPGSNLWLGQRNQKHGFFKGIIQDGKIIFMPNGFITQCPNLNRTCPTCSDFLSLVQGIMDLQELLAKMTAKLNYAETRLGQLENCHCEKTCQVSGLLYRDQDSWVDGDNCRNCTCKSGAVECRRMSCPPLNCSPDSLPVHISGQCCKVCRPKCIYGGKVLAEGQRILTKTCRECRGGVLVKITEACPPLNCSEKDHILPENQCCRVCRGHNFCAEAPKCGENSECKNWNTKATCECKNGYISVQGNSAYCEDIDECAAKMHYCHANTVCVNLPGLYRCDCIPGYIRVDDFSCTEHDDCGSGQHNCDKNAICTNTVQGHSCTCQPGYVGNGTVCKAFCEEGCRYGGTCVAPNKCVCPSGFTGSHCEKDIDECAEGFVECHNHSRCVNLPGWYHCECRSGFHDDGTYSLSGESCIDIDECALRTHTCWNDSACINLAGGFDCLCPSGPSCSGDCPHEGGLKHNGQVWILREDRCSVCSCKDGKIFCRRTACDCQNPNVDLFCCPECDTRVTSQCLDQSGQKLYRSGDNWTHSCQQCRCLEGEADCWPLACPSLSCEYTAIFEGECCPRCVSDPCLADNIAYDIRKTCLDSSGISRLSGAVWTMAGSPCTTCQCKNGRVCCSVDLVCLEN
notes: mouse NELL1, D25-N809; trimer by MALS; also called NELL1FL (Polyhedrin, mouse); source: High Five cells (baculovirus), purified (Ni-NTA, SEC)
- stoichiometry N: 3
